Measured values taken from publication PMC4516795 (The Journal of Experimental Medicine, 2015).

Molecular target: purified monomeric (gel filtered) recombinant basigin (Homo sapiens, UniProt P35613-2, strain)
Assay: SPR

B1: parent anti-basigin mAb (antibody, V domains shown)
VH: EVQLQQSGPELVKTGASVKISCKASGYSFSDDYMHWVKQSHGKSLEWIGYISCYNGVPSYNQKFKGKATFTVDTSSSTAYMQFSSLTSEDSAVYYCARGGNHGFYYHAMDYWGQGTSVTVSS
VL: DIVLTQSPAILSVSPGERVSFSCRASQSIGTGIHWYQQRTNGSPRLLIKFASESISGIPSRFSGSGSGTDFTLSINSVESEDIADYFCQQSTSWPYTFGGGTKLEIK
Kd: ~4 nM

B2: recombinant chimeric anti-basigin antibody Ab-1 (antibody, V domains shown)
VH: EVQLQQSGPELVKTGASVKISCKASGYSFSDDYMHWVKQSHGKSLEWIGYISCYNGVPSYNQKFKGKATFTVDTSSSTAYMQFSSLTSEDSAVYYCARGGNHGFYYHAMDYWGQGTSVTVSS
VL: DIVLTQSPAILSVSPGERVSFSCRASQSIGTGIHWYQQRTNGSPRLLIKFASESISGIPSRFSGSGSGTDFTLSINSVESEDIADYFCQQSTSWPYTFGGGTKLEIK
Kd: ~4 nM
